The values that follow come from patent US20100173430A1 (KOREAN RESEARCH INSTITUTE OF BIOSCIENCE AND BIOTECHNOLOGY, published 2010).

B1: Streptococcal protein G variant tagged with three cysteine residues at the N-terminus (other)
chain: MCCCDDDDKLKGETTTEAVDAATAEKVFKQYANDNGVDGEWTYDDATKTFTVTETYKLVIDGKTLKGETTTKAVDAETAEKAFKQYADDDGVDGVWTYDDATKTFTVTEHHHHHH
notes: Immobilised by its thiol groups on gold film, gold nano-particles or maleimide glass; also called cys3-G; protein produced from plasmid pET-cys3-L-proteinG
B2: Streptococcal protein G variant tagged with one cysteine residue at the N-terminus (other)
chain: MCDDDDKLKGETTTEAVDAATAEKVFKQYANDNGVDGEWTYDDATKTFTVTETYKLVIDGKTLKGETTTKAVDAETAEKAFKQYADDDGVDGVWTYDDATKTFTVTEHHHHHH
notes: Immobilised by its thiol group on gold film, gold nano-particles or maleimide glass; also called cys1-G; protein produced from plasmid pET-cys1-L-proteinG
B3: Streptococcal protein G variant tagged with two cysteine residues at the N-terminus (other)
chain: MCCDDDDKLKGETTTEAVDAATAEKVFKQYANDNGVDGEWTYDDATKTFTVTETYKLVIDGKTLKGETTTKAVDAETAEKAFKQYADDDGVDGVWTYDDATKTFTVTEHHHHHH
notes: Immobilised by its thiol groups on gold film, gold nano-particles or maleimide glass; also called cys2-G; protein produced from plasmid pET-cys2-L-proteinG

For the first assay, the target named is T1, streptavidin-Cy3 from Streptomyces avidinii (S6420 SIGMA-ALDRICH) (Streptomyces avidinii, UniProt P22629 37-163, limits assumed, Cy3 label).
T1 construct: Control protein of the microarray experiment; also called control
Description: microarray on maleimide glass carrying the protein G variant, fluorescence scanner. Here is the method: A glass surface was immersed in a piranha solution (sulfuric acid:hydrogen peroxide, 3:1 v/v) and allowed to react in an oven at 90° C. for 20 minutes. After the reaction, the glass surface was washed with water and ethanol, and then was immersed in ethanol containing 1% APTS ((3-Aminopropyl)trimethoxysilane, 09326, SIGMA-ALDRICH) for 15 to 20 minutes to react, so as to provide an aminated surface. After completion of the reaction, the glass surface was washed with ethanol, and subsequently heated in an oven at 100° C. until the time of use. The prepared aminated surface was immersed in a 10 mM solution of BMPS (N-[b-Maleimidopropyloxy]succinimide ester, 22298, PIERCE, USA) dissolved in DMSO (dimethyl sulfoxide, D2650, SIGMA-ALDRICH) to react for about 30 minutes. The maleimide groups provided on the final glass surface, which groups would be covalently bonded to SH groups, were reacted with Streptococcal protein G variants tagged with one, two or three cysteine residues on the glass surface to immobilize the protein. On the surface where a series of Streptococcal protein G variants were immobilized, an antibody labeled with a fluorescent labeling substance, monoclonal anti-biotin Cy3 (C5585, SIGMA-ALDRICH), and a control, streptavidin-Cy3 (streptavidin-Cy3 from Streptomyces avidinii, S6420 SIGMA-ALDRICH) were arranged into an array using a microarrayer, and then the degree of specific protein binding and the effect of non-specific binding were measured using a fluorescence scanner. As a result, no fluorescent signal of Streptavidin-Cy3 (1 mg/ml) was detected, and since the fluorescent signal increased with an increase in the concentration of the antibody, Monoclonal anti-biotin Cy3, it was confirmed that the antibody reactions with Streptococcal protein G variants tagged with one, two and three cysteine residues were specifically achieved. Also, when the antibody was reacted after allowing the Streptococcal protein G variants to react at the same concentration, the reaction occurred at a low concentration of the antibody with a high binding power. […]
As for B1, the binding result is “no binding (tested: 1 mg/ml)”.
As to B2, the binding result is “no binding (tested: 1 mg/ml)”.
Still for that read-out and setting: as for B3, the entry is “no binding (tested: 1 mg/ml)”.

A further assay addresses T2, human IgG (Sigma) (human).
T2 construct: also called human antibody; antibody (100 µg/ml, human IgG, Sigma)
Description: SPR (BIAcore); protein G variant layer on gold thin film, human IgG 100 ug/ml injected. Here is the method:
A gold thin film chip was treated with a mixed solution (65° C.) of 95% sulfuric acid and 30% aqueous hydrogen peroxide (volume ratio 3:1) for 30 minutes, and then the chip was washed sequentially with double distilled water, ethanol and double distilled water. Subsequently, the chip was dried with nitrogen gas and mounted on a BIA-core surface plasmon resonance sensor. 150 μl each of 200 μg/ml solutions of recombinant proteins tagged with one, two and three cysteine residues, respectively, and of an untagged recombinant protein were introduced to the gold thin film surface of the mounted chip at a flow rate of 5 μl/min, so as to immobilize the proteins. After reacting the gold thin film surface and the aforementioned proteins, 100 μl of BSA (3 mg/ml) was introduced at a flow rate of 5 μl/min to prevent non-specific reactions. Subsequently, 100 μl of an antibody (100 μg/ml, human IgG, Sigma) was introduced at a flow rate of 5 μl/min to produce a biosensor in which protein G variant and the antibody were immobilized on a gold thin film, and the changes in the plasmon resonance signals were measured (FIG. 5).
Take B1: the “change in surface plasmon resonance signal” value came out at 4800 RU and the “fold increase of SPR signal change against the untagged recombinant protein” value was approximately 4.8 times.
The matching figures for B2: 4000 RU and approximately 4 times.
As to B3, the “change in surface plasmon resonance signal” value was determined as 3200 RU and the “fold increase of SPR signal change against the untagged recombinant protein” value is approximately 3.2 times.

In another assay the target is T3, anti-human Kallikrein 3/PSA antibody (R&D systems).
T3 construct: also called antibody against PSA
Description: SPR (BIAcore); protein G variant layer on gold thin film, anti-PSA antibody 0.5 ug/ml injected. Here is the method: Then, antigens (Recombinant Human kallikrein 3/PSA, 0.5 μg/ml) were reacted with the antibodies. As a result, the change in the surface plasmon resonance signals of the untagged recombinant protein increased by 7 RU, the same change of the recombinant protein tagged with one cysteine residue increased by 49 RU, the same change of the recombinant protein tagged with two cysteine residues increased by 41 RU, and the same change of the recombinant protein tagged with three cysteine residues increased by 74 RU.
A gold thin film chip was treated with a mixed solution (65° C.) of 95% sulfuric acid and 30% aqueous hydrogen peroxide (volume ratio 3:1) for 30 minutes, and then the chip was washed sequentially with double distilled water, ethanol and double distilled water. Subsequently, the chip was dried with nitrogen gas and mounted on a BIA-core surface plasmon resonance sensor. 150 μl each of 200 μg/ml solutions of recombinant proteins tagged with one, two and three cysteine residues, respectively, and of an untagged recombinant protein (control) were introduced to the gold thin film surface of the mounted chip at a flow rate of 5 μl/min, so as to immobilize the proteins. After reacting the gold thin film surface and the aforementioned proteins, 100 μl of BSA (3 mg/ml) was introduced at a flow rate of 5 μl/min to prevent non-specific reactions. Subsequently, 100 μl of an antibody (0.5 μg/ml, anti-human Kallikrein 3/PSA antibody, R&D systems) was introduced at a flow rate of 5 μl/min, and the biosensor with immobilized antibody and 50 μl of an antigen (0.5 μg/ml, Recombinant Human Kallikrein 3/PSA) were allowed to react. Then, changes in the plasmon resonance signal was detected (FIG. 8).
For the molecule B1, the “change in surface plasmon resonance signal” value was found to be 491 RU.
The same measure, in the same setting: as for B2, the figure is 472 RU; as for B3, 376 RU.
